{"source": "paper doi:10.1101/2024.06.04.597308", "biological_target": "3β-OH-Δ5-6-cholesterol-5β-reductase (5βChR) from Limosilactobacillus fermentum NKN51 (Limosilactobacillus fermentum NKN51)", "assay": "SEC", "data": [{"substance": "3β-OH-Δ5-6-cholesterol-5β-reductase (5βChR) from Limosilactobacillus fermentum NKN51 (enzyme)", "values": [{"measurement": "stoichiometry N", "result": 2}]}]}
